Results reported in the DeepSol protein solubility set.

Experiment: soluble on expression in E. coli; label from the status in PepcDB or PDB records

| Sequence | soluble on expression in E. coli |
| --- | --- |
| MSLKPEKPSDTELVFISNAETIRDYLLRLSVDELKLLAKYILQNVYIVFVQTDDFASSFRLFNVLNSRGLPLSNADLLKNALFESASTHNKKSEQIESAWSQIEDMVGVRRLDKFLTLHKLSEKKDRDRVLQKGFEAFIENLQQQFDGDAIAMSLMLVNSAKNYTKILENDFEHPSIRRKIASLSNLGVDEWIPPVMAFMNRMARTEDFNLDDFSQFITAFEKVYMHGWLKKQIKSQREMVCYSALVAINNDMPFDSVINQINQHADNSGFIAALDEDLYEPRPNQVNLIKAILLRLDMEQQDESVIKTYTGRITIEHILPQALVNEYWINRFQPQEHVYWLHKIGNLTLISGSKNSEAQHYDFIKKKSIYEKLNSKSSFDLTKDVCNSSEWGLAELKMRHEKMKTQLKKLWLVEGHHHHHH | not soluble |
| MSLKPGTLISMMTEEEANSITHLTLTGKLNAEDFRHLRDEFPSLKVLDISNAEIKMYSGKAGTYPNGKFYIYMANFVPAYAFSNVVNGVTKGKQTLEKVILSEKIKNIEDAAFKGCDNLKICQIRKKTAPNLLPEALADSVTAIFIPLGSSDAYRFKNRWEHFAFIEGEPLETTIQVGAMGKLEDEIMKAGLQPRDINFLTIEGKLDNADFKLIRDYMPNLVSLDISKTNATTIPDFTFAQKKYLLKIKLPHNLKTIGQRVFSNCGRLAGTLELPASVTAIEFGAFMGCDNLRYVLATGDKITTLGDELFGNGVPSKLIYKEGHHHHHH | not soluble |
| MSLKPKYKQIIDDIISQIDSGDLEQGMQLPSQRDMASLYQVNRSTVIQALDILKSQGIIEGREKQRLYVSGNTWHTYIKNNINWQNYISHSTTKNNQYFVQQINKLEFHTNMIRLGTGELAPDLIPNEQFKEILSKCHTPVLNTNYEPPQGNLKLREAVAQYMQKSGVSCTVDHICITSGALQGLKLIADGLLIPQSKIIVESPSYINSIRTWHNMRADIQQISISDIKSNINNIFKAQSQYTNSIFYCIPTLHNPTQHSYSTEEKQKIIMQCEQHGIPIVEDNVYGDLYFNHERPKPLKSFDTNDNILYLNSLSKTVSPGLRVGWIVAKPSVAAHLADLKMQNDYGASSISQYIATQWLTHPQYHDQHLKMLKNQLLIKRNLFLESLKKYFSDFGSWSTPEGSFYIWFQFKFSIDMKRLFDEAIAENILINPGEVYDKDARDCIRFSYAYVDAEDIDETLKHLSKIIQTRFTPPSSHIGKGNEGHHHHHH | not soluble |
| MSLKPSVVLNGDAITLGDIWENIGDKAGTPLANAPAPGKRITLETRWLMAVAQSYGIDWRPASPFERSVVERAGQSVDIRAIETELKEALSMEGAPAGASIEISNRQQLHIVIPATASPTVAVKDLAYDPRMNRFQAVVEAPAGAPNSVRFKVMGSVYASARIPVLAHAMGRGDVIREDDIQWVDVREEVVRRDIISNARMLVGQEPRYQLRAGVPVRTNEVQKPVVVAKNSSVTIMLRSKFMTLTAQGRAIEDGSVGDVIRVTNVQSKQTVDAKIEGPGQVSVMPGGLRTLANEGHHHHHH | not soluble |
| MSLKRFVAEKMDNQDHWDLNIAPLTNKHIAIVGAGPAGAQAAIELRRQGHEVTIYEKLDVYGGMMRVGIPEYRLPRDVIDFEYSYLAMLGIKTQFGVEIGKDISFDTLRSEHDAVILAHGAHVGSIIPLPGHDNDGVFSAVEYLKEISETRQFPRACKRVMVIGGGDVAMDCARSSWRIGASDVYQCSLESLESLPASQIEIDESLEEGVEFNAGWGPVAIEHENGKVTGITIKKVLSIFDEQGNFAPQYSEESKTISVDTVVFATGQIVADITDGALEQTRGGRYVVDKQTLASSLEDVFVAGDACGGNIVIEAMALGRKAAMSVERFLTARPLTEDRDFEQEYSYSSRLDVPLPKGTVDTPRLHGELRDAEERKQDFAQVDLGFTEEQIKQEASRCLQCSCKLCMTECIMMNDFSDCPKTIFSDFVNNKSMDPLLAYSCNACDQCTIVCPKDFPMKEMFLGARTDFVKANNGESPMPGHKAINMHQKLGFSKIFTMAKRAVSTKEGHHHHHH | soluble |
| MSLKRILLSSDRSGSGKTLITSAIMRALSKKYKVRGFKAGPDFIDPGYHKIATGFPSINLDLWMMGKNNVKRSLAKYGKEFDIGIIEGVMGLYDGVDTLYSTYELAKVTKTPIILIINCSNIGSTVGAIVKGLKYYRSDVSIRGVIFNKIASETHYNYCRNAVEDVEVLGYVPFDKNLEIKSRHLGLVTVEDNREVQNLIRYASELVEKYVDLDKIYEMASDEDLEIDLPEDNESNGVKRKMAIAYDPAFSFYYQENLDILKNKYELEFFSPLNNEYVEDAEAIYIGGGYPELHLNELEKSTRTKKWLKNMSYAGVKIYAECGGLMYLSKNLIDENNKNHSMTGIFDIDIKTKDKLTIGYTELEAVKENFIVNKNNVVRGHEFHVSKPISVNEKEFVFKVRIGKGIINKLDGVKSNNTVASYSHLHFSNFQLRIVFEGHHHHHH | not soluble |
| MSLKRVMLKISGEALAGTNGYGIDFEVANRIAKEIKEIVDLGIEVGAVVGGGNIWRGRNGKGMDRTTADYMGMLATCINALALQDSLENMDVDTRVQTAIEMKQVAEPFIRRRAMRHLEKGRVVIFAGGTGNPYFSTDTTAALRAAEIEADVILLAKKVDGVYDKDPHKYDDAIKFDNLTYMEVLEKNLQVMDSTATSLCMDNNIPIIVFGLDVSGNIRKAVLGEKIGTIVSKEGHHHHHH | soluble |
| MSLKRVMTLADIALLANVSKSTASRALRNNPLINKNTRELVQEIALKHNFKVNATASNLRTQKTNTIAVVVMFDQKSGQAISDPFLMEILGTIADELTHFGYDMLLTTTKTATHDWYSYYYESKRADGLIIIGQGEHDQRIEALISTDLPFIVWGTEIHEKNYTTVGSDNRKGGYLAVSHLIEQGCQRIAFLGDINHTEVEQRWLGYQDAVAEAGLVVEDKLQIKTDFTSVDGYQSLRDHCLNDDVPIDGVFAVSDAIALGATKYLFEQNITIPKQVAVIGFDDISMSEYCSPSLSTIRQNTAAGGRLLVKLMLDKLNHLPVDSQLLNVEMIQRQSSEGHHHHHH | soluble |
| MSLKSSTEKKLAAARGTAELIVEDAKKEAETTKKEALLEAKEENHRLRTEIENELRGRRTETQKAENRLLQREENLDRKDTSLSKREATLERKEESISKRQQQIEEKESKLAEMIQAEQTELERISALSKEEAKSIILNQVEEELTHDTAIMVKESENRAKEESDKKAKNILSLAIQRCAADHVAETTVSVVTLPNDEMKGRIIGREGRNIRTLETLTGIDLIIDDTPEAVILSGFDPIRREIARIALEKLVQDGRIHPARIEEMVDKARKEVDEHIREVGEQATFEVGIHSIHPDLIKILGRLRYRTSYGQNVLNHSLEVSKLAGILAGELGEDVTLAKRAGLLHDIGKAIDHEIEGSHVEIGVELATKYKENDVVINSIASHHGDTEATSVIAVLVAAADALSAARPGARSETLENYIRRLEKLEEISESYDGVEKSYAIQAGREVRIIVEPDTIDDLSSYRLARDIRKRIEEELDYPGHIKVTVIRETRAVEYAKEGHHHHHH | not soluble |
| MSLKTLNIYLMRHGKVDAAPGLHGQTDLKVKEAEQQRIAMAWKTKGYDVAGIISSPLSRCHDLAQILAEQQLLPMTTEDDLQEMDFGDFDGMPFDLLTEHWKKLDAFWQSPAHHSLPNAESLSTFSQRVSRAWSQIINDINDNLLIVTHGGVIRIILAHVLGVDWRNPQWYSTLAIGNASVTHITITIDDQIYASVRSIGVPLVEEGHHHHHH | soluble |
| MSLKTMKFILACVLLLSPLLCQAQKNLFNKYNDMKGVSSVYISKAMMELNPNLFMKDLYIGKVAEHLNSVQVLSTHDNKVREEMAKDIRSLVQSSKYELLMKQKSTVSGSEVYVNRKGSKVKELIMVMNGASSLKFVYMEGDMTTDDIKKLMLYQSTSQNEGHHHHHH | not soluble |
| MSLKVLVTGGAGYVGTELVLKLAKDPSISKVVVFDNLSRENYNLFINSAQRIAKDKIQFEFGDLLDSRKIRKILADIDVVYHLAARVSTPFANADSHLYEQVNHWGTAELVYAIEEIKTVQKLIYVSSCSVYGSGKELIDENSVVNPKTIYGVSKMRGEEHVSRLGNKMNAVIIRLGNVYGYSSSMRFDAVINKFMFESHYKNRISIHGNGRQSRSFIHVDKAVDSLVKITSTDIPSGTYNLTERNLEIYDLIDQVKDLYPTLEFIFINQHLELREQKINPETKLLKYIPLQQTDFTAELAAFRDHFTFQTTSEGHHHHHH | soluble |
| MSLLLIVAGHDPTGAGLRADIATAEALGVPAVSLPTLLSLQDEGVELVEPVDSRFMSDCLARYVPRCEVVKVGAVPTLKTFEILAKRLRDLTVVWDPVFRAEAGGELSEATPEEALETFGETVDILTPNTEELSQLVGREVRTTVEAELAARELVEEYGLTGVLVTGGHSVDRRDVWVPAEGNTIAWEVPPGEGAHGSGCVLSTALACFLVRGLDPETAVERAVRFARAAVREARNTPFGRVADPVAQIRRDATLGKATQHVIRALEIIESDPAFARAIPQVGMNVAEVFDPSRGLEGVVGLSGRIVLDGDRPTAVGRPVPGGSKHVGTVALTAHRLDPSVRAAVNARYDEELIERARDLGFVVSSFDRSEEPEEVDSTMEWGTEVAFRRADDTPDVVYDEGDVGKEPMIRVLGKSAVEAVTKLRMLLGCVVGEGHHHHHH | soluble |
| MSLLRAIIVDNEEPATQILQMLLEKTGQIRVVGTFLRAADALSSLRLTKPDVAFLDIEIPDTSGLELANHILAMDSDVEIIFVTAYDHYALHAFRVNALDYLLKPLLPEDVERAVRRLIKRKGLAKDSAPESPLGANIHYFGKFSVYGPASKKPVKWRTSKAEELFAYLVQNLEKEVPKWRICEALWPEYHSEKVDIQLHTTVYKLKKVLTAANIPFDLSFSNGCYWLSLPQAAIDKVEFDAHIASSVPVNQSTIARCEHALSLYTGDYLEENGYLWSLALKAEYGQKFYKLASSVVNFYMTQGDWVRAEKILRSILERCPLDETVHEMLLTCYFTQKDRTAFITHYHTVRKLFQAELGLEPGKSIQTLYHSLLKRMDEGHHHHHH | soluble |
| MSLLVIVKVQQAKNPLERAFFYAVSPEDYYEQAERLLKEGVIDEEGLKKARIEEYVLGARFNANFHSYALKDVFGNFDFVGFSDRRQVNLQGFLNLPAKDQLKINVPVKNEEIGHFGVTMRESKQQEVYEAAEKFIEACKAEFPPGIIGMFGLQGAMAYSPEDETKLEFVIFDVSFRVPGDPAIGPTSPEMRNLTLKHGVKIEDPLDLTMMEIKKAMELKRMEEIVTEGHHHHHH | soluble |
| MSLMTDDIDQRLINALMADSRLSLKALAQVSGLSAPSVAERLRKLEERGVIRGYTLDVDPRCFGYQFQAIVRIRPLPGRLHEVERQIQDIAEFTECDKVTGDDCFIARLQVRSMEQLDTLLDRINGYAETNTAIVKKSPVKRRLPPMT | soluble |
| MSLNAPKLVIGANGFLGSHVTRQLVADCAPQKGEVRAMVRPAANTRSIDDLPLTRFHGDVFDTATVAEAMAGCDDVYYCVVDTRAWLRDPSPLFRTNVAGLRNVLDVATDASLRRFVFTSSYATVGRRRGHVATEEDRVDTRKVTPYVRSRVAAEDLVLQYAHDAGLPAVAMCVSTTYGGGDWGRTPHGAFIAGAVFGRLPFTMRGIRLEAVGVDDAARALILAAERGRNGERYLISERMMPLQEVVRIAADEAGVPPPRWSISVPVLYALGALGSLRARLTGKDTELSLASVRMMRSEADVDHGKAVRELGWQPRPVEESIREAARFWAAMRTVGKDPAASEGHHHHHH | not soluble |
| MSLNARSYLEQQLTGQNANAANALALAITQSQADKAMAETLINATFDQGYFHHIRWQGADGKVRVDRVNEAVFPAAPGWFRALLPLSPQPGSALVTAGWMQAGEIRVEAALGYAYESLWRGALQTMLWLLGTGLLAGLLGSIDIFKLRRDLQRVVNQARAISEHRFQRMTEPKVPELARVVGAMNQMVERLQSFLGEQSEEVEQLRRERHTDPVTGLPNREALEQAVSSTLAEEDDVRGCLLLLRLAGLAELNQRLGGERADALLVRLAADLEDLAARRKGWMAARLRGADFAVFCPELDMDGGRQLAETLCEQLALYRQMGLSDRDGIGHIGVCGIVQGDGLASLLARASQALAEAEAAGDNQWRVDDGAGPDVGSEWDWRELIEAACREHSEGHHHHHH | soluble |
